The values that follow come from patent publication US20220323495A1.

The target of assay [1] is recombinant human EGFRvIII protein, denatured (human) (UniProt P00533). Description: ELISA on coated denatured recombinant antigen; Exp 2, mAb 1 µg/ml. A general note: ELISA stands for enzyme-linked immunosorbent assay.
The target of assay [2] is recombinant human EGFRvIII protein, native (human) (UniProt P00533). Description: ELISA on coated native recombinant antigen; Exp 1.
The target of assay [3] is recombinant human wild-type EGFR protein, native (human) (UniProt P00533). Nature of the assay: ELISA on coated native recombinant antigen; Exp 1.
The target in assay [4] is recombinant human EGFRvIII protein, native (human) (UniProt P00533). Nature of the assay: ELISA on coated native recombinant antigen; Exp 2, mAb 1 µg/ml.
The target in assay [5] is recombinant human wild-type EGFR protein, native (human) (UniProt P00533). Described as above.
Assay [6] deals with recombinant human wild-type EGFR protein, denatured (human) (UniProt P00533). Nature of the assay: ELISA on coated denatured recombinant antigen; Exp 1.
The target in assay [7] is recombinant human EGFRvIII protein, denatured (human) (UniProt P00533). Described as above.
Assay [8] deals with recombinant human wild-type EGFR protein, denatured (human) (UniProt P00533). Description: ELISA on coated denatured recombinant antigen; Exp 2, mAb 1 µg/ml.

For 225 monoclonal antibody (ATCC HB-8508), the ELISA absorbance (405 nm) in assay [1] is 0.004 A405; in assay [2], 1.08 A405; in assay [3], 1.2 A405; in assay [4], 1.5 A405; in assay [5], 1.32 A405; in assay [6] it was -0.01 A405. Besides, in assay [7], the ELISA absorbance (405 nm) was 0.001 A405.

In the case of Neg ctrl mouse mAb (antibody), the results for the ELISA absorbance (405 nm) in assay [8] and in assay [4] were 0 A405 and -0.001 A405, respectively.
